Source: the supplement of paper PMC7877785
± gives the uncertainty stated by the source.

Test: self-splicing fitness, log relative to wild type (ln ratio); higher = more splicing; Tetrahymena group I intron in knt gene, E. coli kanamycin selection, DiMSum; sequences stand for … in CUCUCU…GGAGGGAAAAGUUAUCAGGCAUGCACCUGGUAGCUAGUCUUUAAACCAAUAGAUUGCAUCGGUUUAAAAGGCAAGACCGUCAAAUUGCGGGAAAGGGGUCAACAGCCGUUCAGUACCAAGUCUCAGGGGAAACUUUGAGAUGGCCUUGCAAAGGGUAUGGUAAUAAGCUGACGGACAUGGUCCUAACCACGCAGCCAAGUCCUAAGUCAACAGAUCUUCUGUUGAUAUGGAUGCAGUUCACAGACUAAAUGUCGGUCGGGGAAGAUGUAUUCUUCUCAUAAGAUAUAGUCGGACCUCUCCUUAAUGGGAGCUAGCGGAUGAAGUGAUGCAACACUGGAGCCGCUGGGAACUAAUUUGUAUGCGAAAGUAUAUUGAUUAGUUUUGGAGUACUCGUGGUCG
Method in brief: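 Six replicate transformations of E. coli BL21(DE3) with a pET-22b(+) library were grown overnight at 37°C or 30°C. The library randomised all eight P1ex-region intron nucleotides, the intron lying in the knt kanamycin-resistance gene, and plates were LB agar with or without 25 μg/mL kanamycin plus 100 μg/mL carbenicillin, 50 μM IPTG and 0.2% rhamnose. Pooled colonies were amplicon-sequenced on an Illumina HiSeq 2500, and fitness is the DiMSum error-weighted combination of wild-type-normalised replicate fold changes, kanamycin versus none.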

Sequence	self-splicing fitness (ln) (30 °C)	self-splicing fitness (ln) (37 °C)
UACGAGCAAUAUUACGACGU	-2.08 ± 0.23	-2.12 ± 0.27
UACGAGCAAUAUUACGAGAA	-2.33 ± 0.35	–
UACGAGCAAUAUUACGAUGC	–	-2.04 ± 0.33
UACGAGCAAUAUUACGCACA	-3.08 ± 0.26	-1.29 ± 0.21
UACGAGCAAUAUUACGCAUA	-3.17 ± 0.19	-0.975 ± 0.13
UACGAGCAAUAUUACGCCUC	–	-2.06 ± 0.34
UACGAGCAAUAUUACGCUAU	-2.4 ± 0.14	-3.49 ± 0.29
UACGAGCAAUAUUACGCUUC	-2.53 ± 0.25	-1.32 ± 0.3
UACGAGCAAUAUUACGGCGA	-1.39 ± 0.15	-0.508 ± 0.15
UACGAGCAAUAUUACGGGAG	-3.43 ± 0.22	-2.72 ± 0.39
UACGAGCAAUAUUACGGGUC	-3.23 ± 0.26	-3.06 ± 0.43
UACGAGCAAUAUUACGGUCG	-0.828 ± 0.076	-0.0425 ± 0.099
UACGAGCAAUAUUACGUAAA	-3.61 ± 0.29	-2.84 ± 0.26
UACGAGCAAUAUUACGUAUG	-3.49 ± 0.23	-3.34 ± 0.24
UACGAGCAAUAUUACGUCAA	–	-2.31 ± 0.46
UACGAGCAAUAUUACGUGGG	-3.25 ± 0.14	-2.88 ± 0.19
UACGAGCAAUAUUACGUUGU	-3.36 ± 0.16	-2.68 ± 0.18
UACUAGCAAUAUUACGAAAC	–	-2.1 ± 0.32
UACUAGCAAUAUUACGAAGA	-2.32 ± 0.19	-1.86 ± 0.25
UACUAGCAAUAUUACGAAUC	-2.81 ± 0.18	-3.38 ± 0.35
UACUAGCAAUAUUACGACCA	0.122 ± 0.088	-0.816 ± 0.1
UACUAGCAAUAUUACGAGGU	-3.47 ± 0.42	-2 ± 0.29
UACUAGCAAUAUUACGAUAG	-1.44 ± 0.12	-0.923 ± 0.14
UACUAGCAAUAUUACGAUCU	-1.31 ± 0.13	-0.847 ± 0.14
UACUAGCAAUAUUACGAUUU	-2.36 ± 0.12	-0.92 ± 0.15

Sequence	self-splicing fitness (ln) (30 °C)	self-splicing fitness (ln) (37 °C)
UACUAGCAAUAUUACGCCAA	0.284 ± 0.44	-1.02 ± 0.25
UACUAGCAAUAUUACGGACC	–	-1.13 ± 0.33
UACUAGCAAUAUUACGGCAA	-0.353 ± 0.12	0.301 ± 0.12
UACUAGCAAUAUUACGGGAA	-1.95 ± 0.13	-0.547 ± 0.1
UACUAGCAAUAUUACGGGCC	-3.27 ± 0.17	-3.17 ± 0.23
UACUAGCAAUAUUACGGUCA	0.103 ± 0.086	0.31 ± 0.083
UACUAGCAAUAUUACGGUGU	-3.74 ± 0.23	-2.65 ± 0.29
UACUAGCAAUAUUACGUAAU	-2.63 ± 0.17	-1.93 ± 0.22
UACUAGCAAUAUUACGUAGA	-1.84 ± 0.11	-1.95 ± 0.16
UACUAGCAAUAUUACGUGUU	-3.16 ± 0.15	-0.975 ± 0.13
UACUAGCAAUAUUACGUUAA	-2.1 ± 0.18	-1.43 ± 0.18
UAGAAGCAAUAUUACGAUAA	-1.05 ± 0.11	-0.854 ± 0.12
UAGAAGCAAUAUUACGAUUG	-1.74 ± 0.07	-0.442 ± 0.083
UAGAAGCAAUAUUACGCAAA	-1.24 ± 0.22	-1.03 ± 0.31
UAGAAGCAAUAUUACGCCGG	-0.817 ± 0.12	-0.196 ± 0.18
UAGAAGCAAUAUUACGCUUG	-2.11 ± 0.11	-1.05 ± 0.12
UAGAAGCAAUAUUACGGAAG	-2.16 ± 0.22	-0.543 ± 0.23
UAGAAGCAAUAUUACGGCAA	-0.122 ± 0.075	-0.249 ± 0.088
UAGAAGCAAUAUUACGGGCG	0.0568 ± 0.11	-0.38 ± 0.13
UAGAAGCAAUAUUACGGGUC	-3.55 ± 0.33	-2.84 ± 0.44
UAGAAGCAAUAUUACGGUUA	0.144 ± 0.094	-0.007 ± 0.086
UAGAAGCAAUAUUACGUACU	-1.22 ± 0.1	-0.355 ± 0.14
UAGAAGCAAUAUUACGUCCG	0.777 ± 0.14	-0.199 ± 0.16
UAGAAGCAAUAUUACGUCUG	-1.12 ± 0.064	-0.959 ± 0.076
UAGAAGCAAUAUUACGUGAC	-3.33 ± 0.24	-2.28 ± 0.28

Sequence	self-splicing fitness (ln) (30 °C)	self-splicing fitness (ln) (37 °C)
UAGAAGCAAUAUUACGUGCC	-2.13 ± 0.22	-0.962 ± 0.19
UAGAAGCAAUAUUACGUGUA	-1.95 ± 0.11	-0.392 ± 0.09
UAGAAGCAAUAUUACGUUUU	-3.58 ± 0.17	-2.85 ± 0.18
UAGCAGCAAUAUUACGAACA	-0.591 ± 0.069	0.237 ± 0.081
UAGCAGCAAUAUUACGAGCC	-2.62 ± 0.23	-1.9 ± 0.3
UAGCAGCAAUAUUACGAGGG	-1.97 ± 0.21	-1.96 ± 0.27
UAGCAGCAAUAUUACGAGUA	-1.39 ± 0.14	-0.225 ± 0.14
UAGCAGCAAUAUUACGAUUG	-0.536 ± 0.12	-0.509 ± 0.14
UAGCAGCAAUAUUACGCAGU	-3.58 ± 0.47	-2.18 ± 0.21
UAGCAGCAAUAUUACGCCUC	-3.28 ± 0.16	-1.11 ± 0.12
UAGCAGCAAUAUUACGCGGC	-3.84 ± 0.22	-1.6 ± 0.21
UAGCAGCAAUAUUACGCUUC	-3.05 ± 0.34	-2.25 ± 0.33
UAGCAGCAAUAUUACGGAAU	-3.87 ± 0.44	-2.13 ± 0.33
UAGCAGCAAUAUUACGGACA	-0.821 ± 0.11	-0.11 ± 0.13
UAGCAGCAAUAUUACGGCGA	-0.238 ± 0.077	0.939 ± 0.1
UAGCAGCAAUAUUACGGCUG	-3.72 ± 0.35	-2.64 ± 0.28
UAGCAGCAAUAUUACGGGCA	-0.608 ± 0.11	-0.41 ± 0.1
UAGCAGCAAUAUUACGGUUG	-1.17 ± 0.092	-0.442 ± 0.12
UAGCAGCAAUAUUACGUAGC	-3.58 ± 0.44	-2.78 ± 0.38
UAGCAGCAAUAUUACGUCCA	-0.794 ± 0.11	-0.187 ± 0.11
UAGCAGCAAUAUUACGUCUA	-0.114 ± 0.073	0.146 ± 0.084
UAGCAGCAAUAUUACGUCUU	-1.07 ± 0.071	-0.289 ± 0.085
UAGCAGCAAUAUUACGUUGU	-3.72 ± 0.21	-3.08 ± 0.26
UAGGAGCAAUAUUACGAACG	-0.534 ± 0.12	-0.578 ± 0.19
UAGGAGCAAUAUUACGACCA	-1.68 ± 0.13	-0.415 ± 0.19

Sequence	self-splicing fitness (ln) (30 °C)	self-splicing fitness (ln) (37 °C)
UAGGAGCAAUAUUACGACUC	-2.01 ± 0.28	–
UAGGAGCAAUAUUACGACUG	-0.384 ± 0.096	0.363 ± 0.14
UAGGAGCAAUAUUACGAGAA	-3.23 ± 0.44	-2.68 ± 0.42
UAGGAGCAAUAUUACGCAUU	-3.91 ± 0.35	-2.42 ± 0.42
UAGGAGCAAUAUUACGCGAU	-3.84 ± 0.47	-2.68 ± 0.34
UAGGAGCAAUAUUACGCGUC	-2.98 ± 0.28	-2.22 ± 0.29
UAGGAGCAAUAUUACGGCAG	-3.1 ± 0.37	-0.425 ± 0.25
UAGGAGCAAUAUUACGGGAG	-2.69 ± 0.27	-2.96 ± 0.36
UAGGAGCAAUAUUACGGGUA	-1.45 ± 0.17	-2.13 ± 0.21
UAGGAGCAAUAUUACGUGGA	-2.34 ± 0.38	-1.43 ± 0.22
UAGGAGCAAUAUUACGUUAU	-4.64 ± 0.22	-2.85 ± 0.15
UAGGAGCAAUAUUACGUUGA	-2.46 ± 0.18	-1.19 ± 0.17
UAGUAGCAAUAUUACGACCG	-0.133 ± 0.16	0.109 ± 0.16
UAGUAGCAAUAUUACGACGG	-1.21 ± 0.16	-0.306 ± 0.21
UAGUAGCAAUAUUACGAGAU	-2.69 ± 0.13	-2.32 ± 0.19
UAGUAGCAAUAUUACGAGCA	-1.07 ± 0.12	-0.0288 ± 0.12
UAGUAGCAAUAUUACGAGGC	-3.45 ± 0.32	–
UAGUAGCAAUAUUACGAGUG	-1.66 ± 0.081	-0.549 ± 0.083
UAGUAGCAAUAUUACGAUAG	-1.95 ± 0.35	–
UAGUAGCAAUAUUACGAUGC	-4.61 ± 0.34	-2.56 ± 0.2
UAGUAGCAAUAUUACGAUUA	-0.381 ± 0.099	0.0431 ± 0.098
UAGUAGCAAUAUUACGCACC	–	-0.0165 ± 0.38
UAGUAGCAAUAUUACGCCGA	-1.81 ± 0.23	-0.922 ± 0.2
